This assay addresses T1, recombinant human serpin B1, wild type (C344) (human, UniProt P30740 1-379).
T1 construct: serpin B1, human, recombinant, wild type (C344); non-glycosylated, 42 kDa by the discussion; also called rhsB1; sB1; source: yeast S. cerevisiae, purified
T1 sequence (looked up): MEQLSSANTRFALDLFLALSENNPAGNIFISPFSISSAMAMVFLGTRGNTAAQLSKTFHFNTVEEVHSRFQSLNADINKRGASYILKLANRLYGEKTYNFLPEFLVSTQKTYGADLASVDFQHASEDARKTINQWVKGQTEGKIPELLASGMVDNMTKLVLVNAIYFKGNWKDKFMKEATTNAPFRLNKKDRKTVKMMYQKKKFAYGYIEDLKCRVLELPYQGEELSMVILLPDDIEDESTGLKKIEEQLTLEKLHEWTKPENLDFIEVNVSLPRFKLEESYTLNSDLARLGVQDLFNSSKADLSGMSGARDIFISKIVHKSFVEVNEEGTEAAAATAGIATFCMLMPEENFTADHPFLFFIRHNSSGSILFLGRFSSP
Put plainly: formation of SDS- and heat-stable serpin-protease complexes, SDS-PAGE; 2 uL of hNE, hPR3 or hCG (23.4 uM each) mixed with each sB1 protein at 1:1 molar ratio in 20 uL PBS, pH 7.4, 15 min; stopped with protease inhibitor mix; reducing sample buffer, heated, SDS-PAGE. Particulars: both partners purified.

B1: proteinase 3 (enzyme, human, UniProt P24158 28-248, looked up)
chain: IVGGHEAQPHSRPYMASLQMRGNPGSHFCGGTLIHPSFVLTAAHCLRDIPQRLVNVVLGAHNVRTQEPTQQHFSVAQVFLNNYDAENKLNDVLLIQLSSPANLSASVATVQLPQQDQPVPHGTQCLAMGWGRVGAHDPPAQVLQELNVTVVTFFCRPHNICTFVPRRKAGICFGDSGGPLICDGIIQGIDSFVIWGCATRLFPDFFTRVALYVDWIRSTLR
notes: hPR3, neutrophil serine protease; also called hPR3; PR3; source: bought: Athens Research and Technology
For B1, the binding result is reported as “binds”.

B2: cathepsin G (enzyme, human, UniProt P08311 21-244, looked up)
chain: IIGGRESRPHSRPYMAYLQIQSPAGQSRCGGFLVREDFVLTAAHCWGSNINVTLGAHNIQRRENTQQHITARRAIRHPQYNQRTIQNDIMLLQLSRRVRRNRNVNPVALPRAQEGLRPGTLCTVAGWGRVSMRRGTDTLREVQLRVQRDRQCLRIFGSYDPRRQICVGDRRERKAAFKGDSGGPLLCNNVAHGIVSYGKSSGVPPEVFTRVSSFLPWIRTTMRS
notes: cathepsin G (hCG), neutrophil serine protease; also called hCG; Cat G; source: bought: Athens Research and Technology
Take B2: the binding result is “binds”.

(Values after paper PMC11327461, “Exogenous serpin B1 restricts immune complex-mediated NET formation via inhibition of a chymotrypsin-like protease and enhances microbial phagocytosis” (The Journal of Biological Chemistry, 2024).)
